{"source": "the DeepSol protein solubility set"}
{"assay": "soluble on expression in E. coli; label from the status in PepcDB or PDB records"}
{"sequence": "MSLKSGTLRVWLFQEVNNKPKEKVVDAALADFEKAHADTKVTVEYIPVETRAQRIKAAFNDPKSAPDVVEFGNTDTAGYVKDGGLADISEEFAAWDEAKDADSTARQSVTVDGKVYGAPYFVGVRALYYRTDVFDELGLKAPRTLAELASTAKRVRAAKPDLYGLAVGGAYTYGAMPFIWANGGDIATGKGGSYASAIDSAAAQKGIKAYTSLFGDANCPAAKCAGMTGNDTVTAFASGKAAMAIGGDFSHQAMEAGAVKGKYAVVPLPGVEPGSIAPAFAGGNNIGVLKSTSHRTLAVDLMKRLASKKAQGELFDAMGFLPTFTDVRQQVAAREPFVKPFVDTLAAGTKFVPASPAWATIDSSLVLPTMFQEVVSGKKDVGAAAGDAARKMDDAFGSAGEGHHHHHH", "soluble on expression in E. coli": "soluble"}
{"sequence": "MSLKTFTLPASVLFCFLLLIQGLGAAPPGRPDVFPPPLSSEHNGQVAEDAVSRPKDDGVPEVRAARNPEPQDQGELFQGVDPRALASVLLQALDRPASPPSVPGGSQQGTPEEAAEALMTESVRSQTHSLPAPEIQAPAVAPPRPQTQDRDPEEDDRSEEMEALASLLQELRDFSPSNAKRQQETAAAETETRTHTLTRVNLESPGPERVWRASWGEFQARVPERAPLPPPVPSQFQARMSESAPLPETHQFGEGVSSPKTHLGETLTPLSKAYQSLGGPFPKVRRLEGSFLGGSEAGERLLQQGLAQVEAGRRQAEATRQAAAQEERLADLASDLLLQYLLQGGARQRDLGGRELQETQQERENEREEEAEQERRGGGEDDVGEEDEEAAEAEAEAEEAERARQNALLFAEEEDGEAGAEDKRSQEEAPGHRRKDAEGAEEGGEEDDDDEEMDPQTIDSLIELSTKLHLPADDVVSIIEEVEEKRKRKKNAPPEPVPPPRAAPAPTHVRSPQPPPPAPARDELPDWNEVLPPWDREEDEVFPPGPYHPFPNYIRPRTLQPPASSRRRHFHHALPPARHHPDLEAQARRAQEEADAEERRLQEQEEMENYIEHVLLHRPEGHHHHHH", "soluble on expression in E. coli": "soluble"}
{"sequence": "MSLKTRYVLSCLLLGSALSVSAQKMAVKSNLLSAANGALNAGVEYAFGPKSTFDLSGSIRPWKRTEGYVNKYWLIQPEYRYWTCQKFNGSFWGAYLNGAQFNVGGKKMPFGLFPWLKEHRYAGWLTGGGISYGYHIMLNRHWNIEVSVGVGYEYIDYKKYKCPDVCAELLEKGHYHYFGPSKASLSIVYIFNEGHHHHHH", "soluble on expression in E. coli": "not soluble"}
{"sequence": "MSLKVIDFRFRPNTPEIISGIANSNMFRAACKAIGFEKRQPQPLEQIVEDLDKRGVVLSVISGRDSETTYGSPANNGSVLAFCRAYPERFIGFWGLDPHKGMAAVRELRHAVNELGMRGASIDPYLAHLRPDDARYYPIYAACCDLNVPVFITTAPPPQVAGAVMDYTDPRHVDIVARDFPELRIVMSHGGYPFVNEAIFACLRNANVYMDCSEYEQAPMAEAYIQAMNGIIQDKVVFASAHPFIEQADALEVYARMPLSDEARHKVMYANACKVLGIEGHHHHHH", "soluble on expression in E. coli": "soluble"}
{"sequence": "MSLKVQGYANVVTLPNVTGRVIIVGDIHGCRAQLEDLLRAVSFKQGSDTLVAVGDLVNKGPDSFGVVRLLKRLGAYSVLGNHDAKLLKLVKKLGKKECLKGRDAKSSLAPLAQSIPTDVETYLSQLPHIIRIPAHNVMVAHAGLHPQRPVDRQYEDEVTTMRNLIEKEQEATGGVTLTATEETNDGGKPWASMWRGPETVVFGHDARRGLQEQYKPLAIGLDSRCVYGGRLSAAVFPGGCIISVPGWNGASAAAEGHHHHHH", "soluble on expression in E. coli": "soluble"}
{"sequence": "MSLKVRNLNISLKNNLLLKDINLDIKTGKTLMILGQSGVGKSLLGKALVRLLDSNFTISFDELSFHNSCIFNFNKEELRNFRSKVALVLQDAELSLYPYLDIGNLCHLVLKTHTKLKQKERKDYAFSYFQKLGFENLDRLWHSYANELSLGMARRVSLALALLNQPQILICDEITASLDKENASKIISILEELKNTAALVCITHDLNLVNSLADEILMLEKNSSNLYSLDEFLRYYNAEGHHHHHH", "soluble on expression in E. coli": "soluble"}
{"sequence": "MSLKVSAHNGNSDPSGAVQRRQSFRKSKTEDTVGTGNNGAANGGGGGAAANNNQMLENDLLSKYMGNQSPARQQVKKNLLNGTSGGGESVPAKPKTYDARCYVQNGSINFGKIITDEVLAADYDLVEAAKKMSDFAGTTALIAVIHRTKLIVANVGDSRGVMCDFKGNAIPLSFDHKPQQVREQKRIADAGGFIAFKGVWRVAGILATSRALGDYPLKEKNLVIANPDVLSFDLVDHRPQFLILASDGLWDTFTNEEAVAYVRERLDEPHFGAKSIALQSYSRGSVDNITVLVIVLKNGRYEIGSSSNEGHHHHHH", "soluble on expression in E. coli": "soluble"}
{"sequence": "MSLKWSAIPFQTLYRSIESGEFDFDLFKEVLPDLQNLNLNTDKLKNNASRSQLEKGEIELSDGSTFKVNQEFIFEAISLSDELNLDEIVACELILSGDTTANNGKVQYFLRRQYILQIVSFIVNCFHEDTELYQELIKNGALVSNILSAFKFIHTQLSEIKQQINKAQILENYNALFQQNIKFRRDFLLREYDILSQILYGLVDKGAIMKNKDFILSLLHHVSELDSNDFFIIYYTPAFFHLFASLRVLPDADVKLLHSQFMKDLKDDSIYTKPVKVALIFIFFAYFIGWCKEDPKRRADTMDFKTDVDEPMTSAVELGAIEQILIFAADTSIVEQDKSMELFYDIRSLLERHIPRLIPKQLLDDEKIFSQTTNSTYNPASATDNMSGRGLWNPSYPGMMSTTGTARLNSMPNNVNEYSYTTIVLSDQTQEFFLSSFDDVLQTIITDCAFLLTKIKDAEEDSLLSGEDLTLDDISLKADLERFFLSIYFFYASRPEYSCTFWSDKESNAYGFIEWCSRCNDNLMRSCFYLMVSSLSFGPENALNVYHYFGENSSISWKNIAQCLSDYTKKISNFNSSLHKRQQFSESTHNDIDSTAVALEEGLNEEAVIFLSSLLTLVGSVTYQVDEDVKSSLSKVFSDVLFEFTKINTPLVGAAFKVISNLVPKLESSRTKFWSFLDSLIFKDSSLNYSSESYRNAFTNVLTKYSDVLGFLQLFHNLISIHSRENNSEYMVFGKLAFPTRLGQGYRKVGIWPYFDYIFNDILAHVDQIVDIRNKRAVQLPILKIIYTGLCSFDYSVILNSIPAAANLDALVDCENFFNYVQECPAIPIFNYIFTEKIYKSIFNVVDVGVDQLSIELEGGKNQAELLQLAVKIINKVLDYQETYVEELFPIVKKHGKTDYFLPKNYSLHGLRSFYDAIFFNIPLVAHLGLYVGVDDQILATNSLRILAKLSERSNGSVASLSEGHHHHHH", "soluble on expression in E. coli": "soluble"}
{"sequence": "MSLKWSITQLRKYQGKPFEFDQTVSFDNLKESLDLIDLSPITIQGQLTIKSTEVVADIHITGTYTMPCARTLVPVKVPLDVTTTEVFDLEGYNQYNDDQDDVDEHYHIIKDGMVNLQDIVEDIVIIEKPMRAYSEQSDQMLTVGNGWEVIDEDQLDELAKQQEQDDSESRQVDPRLQKLQQLYDKEQEGHHHHHH", "soluble on expression in E. coli": "soluble"}
{"sequence": "MSLKWTIYQLHQMPKQSFEFDETVELNELTKLNSDIRRISPVRVKGRADIKSKQVSFDFTISGEMLLPCSRTLVDVPYPFEISTKELFIFHHTDDIEDDDVHIVEDDTIDITPIVKEEILLEIPMQIFCESEQEKGAAPQEGKDWQVISEEDKKNQVDPRLAALEKLLKQDDESEGHHHHHH", "soluble on expression in E. coli": "soluble"}
{"sequence": "MSLKYEYCPICGKKLEKKYSYDEGDVPYCQKDKIMFFDVPKPCVLVAVIKGQEILLLKQEYTFKDSKILVSGYVANGETVEETVVREVKEEVGIIVEKPEYLGSYYFKPKELIMLTFMVRYVSGEITKSQEVDEAYWVNMRDVLQEMNEDKVGKDVVKKVFKRIGYNEEKYLHKEGHHHHHH", "soluble on expression in E. coli": "not soluble"}
{"sequence": "MSLKYLVIGSNSFTGASMVSYLLDQGADVVGISRSDEPHPAFLPYRWKKADRFRFQKLDLNHDLDAIMQLVTAERFPCIINFAAQSMVGESWANPDHWFMTNVVSTVRLHERLRICDFLERYVHVTTPEVYGNATGTLTEDAVFDPSTPYAVSRAAGDMSLRSYFRAYGFPVLFTRAANVYGPGQRLYRIVPRTILFIKLGRKLQLHGGGTSERSFIHAADVADATRRIACNGKLGDSYHISTDRIVTIRALVEMICAMMRVRFEDQVEIVGERLGKDAAYKLDSSKLRSELGWSDQITLEQGIEQTIAWIDRWFEELKSQPFDYAHKEGHHHHHH", "soluble on expression in E. coli": "not soluble"}
{"sequence": "MSLKYPGFLYLNDIHIDLSYNPKSNKDWCHSQTNNLLESWEFGQYNCDPPPKLYDSLVESLKTNVPSVDFILLGGDLPSHDLGGNYTFLKEHFRLITDPLEKLYPNKKIFITLGNNDFQENYGSFKTDLKDFENAHEVFGKWMNEEQSKTFKKGGYYYEDMPELKLRLLLLNTVMYTNTKSRVFNESLKDPYDQFAWIRQTYKEGVDKGYKVGVALHVPPGIVYYKGIPGFPSMYLEEFGKVFEECDFSFTISGHSHIDTLNPLYKANVEEDNIQYSLSAVSVSPSHYNNPGYRYFEIKDGVLQDYTQFYADIMMNPDSPKWEVEYKFRDAYKVKDLSKKSLNDATRYIRSKGSVIWSYRGYIYSQAEKYNPFFYCALRALTKEDVFKCSLDLNVNLSSEGHHHHHH", "soluble on expression in E. coli": "soluble"}
{"sequence": "MSLKYVKSLFEIHPDIATKFRIKNQYLKTGYMNVLLCLIETVRRSPKEISKNDLADAYVALESLTDHGFKLDWLKKKLDQVTQKKEKEAAGETRMHEIGEELKDLKLKCSDLEAQLDKVKWKCSDLEAQLVKEKADVLAAIAPLGSSDDGVFDDFFEKQYTGFVRKYQIGASQTWFLLLNSRPKIVDFWSRANSKALLKARFLKLLAYAMCQNQKAWMSTGFMFYLPKRLLAFPKGNDTKSDHLSLYLDVAESESLPCGWRRHAQFSFTIVNHIPEKCSQRKDGEGSSFYEEIQLGHQEFLLFAIAENILASVRDARLQEGHHHHHH", "soluble on expression in E. coli": "not soluble"}
{"sequence": "MSLLEYLPPGVDTDRFRPDPAARAELRKRYRLGERPTVVCLSRLVPRKGQDTLVTALPSIRRRVDGAALVIVGGGPYLETLRKLAHDCGVADHVTFTGGVATDELPAHHALADVFAMPCRTRGAGMDVEGLGIVFLEASAAGVPVIAGNSGGAPETVQHNKTGLVVDGRSVDRVADAVAELLIDRDRAVAMGAAGREWVTAQWRWDTLAAKLAEGHHHHHH", "soluble on expression in E. coli": "not soluble"}
{"sequence": "MSLLIKNGKIFTCEEGKIYEKGDILIKDGKISKIGEDLSQYIGEEEVIDAKGLLIFPGFIEAHCHLGLHEEGNNGAGNGTNEASEPITPQMRAIDGINPFDGGFQSAREAGVTTAVIGPGSANVIGGQFAAVKTSGICIDDMIIKESVAIKVAFGENPKRVYSGKNKMPNTRMAIAALLRETLTEAVNYKNRKIDAEIEDKDFSKNLKYEALLPLINREIPMKAHAHRADDILTAIRIAKEFNLKLTLDHCTEGHLISDYIKRENLDAIVGPTLSFNGKAETLNKTFKTPKALIDKGIKVAITTDHPVVTIDNLPLCAAMAMKEGITFNEVLEAITINPAEIIGIDERVGSLKEGKDGDLVILNGSPFEIATKTIYTIINGEVVYKDEGHHHHHH", "soluble on expression in E. coli": "soluble"}
{"sequence": "MSLLNQKIQNPNPDELMIEVDLCYELDPYELKLDEMIEAEPEPEMIEGLPASDALTPADRYLELFEHVQSAKIFPDSKTFPDCAPKMDPLDILIRYRKVRRHRDFDLRKFVENHFWLPEVYSSEYVSDPQNSLKEHIDQLWPVLTREPQDHIPWSSLLALPQSYIVPGGRFSETYYWDSYFTMLGLAESGREDLLKCMADNFAWMIENYGHIPNGNRTYYLSRSQPPVFALMVELFEEDGVRGARRYLDHLKMEYAFWMDGAESLIPNQAYRHVVRMPDGSLLNRYWDDRDTPRDESWLEDVETAKHSGRPPNEVYRDLRAGAASGWDYSSRWLRDTGRLASIRTTQFIPIDLNAFLFKLESAIANISALKGEKETEALFRQKASARRDAVNRYLWDDENGIYRDYDWRREQLALFSAAAIVPLYVGMANHEQADRLANAVRSRLLTPGGILASEYETGEQWDKPNGWAPLQWMAIQGFKMYGDDLLGDEIARSWLKTVNQFYLEQHKLIEKYHIADGVPREGGGGEYPLQDGFGWTNGVVRRLIGLYGEPEGGSHHHHHH", "soluble on expression in E. coli": "soluble"}
{"sequence": "MSLLSGSFLEENMKHLDTYIAFDLEFNTVNDVSHVIQGSAVKYDHHKEVDSFDTYVYTDVPLQSFINGLTGITSNKIAAAPKVEEVMAAFKNFVGELPLIGYNAQKSDLPILAENGLDLRDQYQIDLFDEAYDRRSADLNGIANLRLQTVATFLGIKGRGHNSLEDARMTAAIYESFLETDTNKAYLSQQEEVITDNPFVALGGFFDEGHHHHHH", "soluble on expression in E. coli": "not soluble"}
